T1: IL2RB, Cyno (Macaca fascicularis, UniProt Q38J85)
T1 construct: Same protein as m18, but here as recombinant protein in solution, not on CHO cells; also called cynomolgus IL-2RB (Sino Biological)
T1 sequence (receptor chain, looked up): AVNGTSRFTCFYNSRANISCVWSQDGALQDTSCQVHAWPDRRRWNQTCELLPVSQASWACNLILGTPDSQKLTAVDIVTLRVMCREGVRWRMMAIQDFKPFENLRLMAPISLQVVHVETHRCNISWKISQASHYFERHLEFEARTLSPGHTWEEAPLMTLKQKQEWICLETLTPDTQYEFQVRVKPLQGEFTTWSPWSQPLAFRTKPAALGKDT

T2: human IL-2Rβγ receptor on primary human T-cells and NK-cells (PBMCs) (human, UniProt P14784 27-551; P31785 23-369)
T2 construct: Endogenous receptor on primary cells; also called dimeric IL-2Rβγ receptor complex
T2 sequence 1: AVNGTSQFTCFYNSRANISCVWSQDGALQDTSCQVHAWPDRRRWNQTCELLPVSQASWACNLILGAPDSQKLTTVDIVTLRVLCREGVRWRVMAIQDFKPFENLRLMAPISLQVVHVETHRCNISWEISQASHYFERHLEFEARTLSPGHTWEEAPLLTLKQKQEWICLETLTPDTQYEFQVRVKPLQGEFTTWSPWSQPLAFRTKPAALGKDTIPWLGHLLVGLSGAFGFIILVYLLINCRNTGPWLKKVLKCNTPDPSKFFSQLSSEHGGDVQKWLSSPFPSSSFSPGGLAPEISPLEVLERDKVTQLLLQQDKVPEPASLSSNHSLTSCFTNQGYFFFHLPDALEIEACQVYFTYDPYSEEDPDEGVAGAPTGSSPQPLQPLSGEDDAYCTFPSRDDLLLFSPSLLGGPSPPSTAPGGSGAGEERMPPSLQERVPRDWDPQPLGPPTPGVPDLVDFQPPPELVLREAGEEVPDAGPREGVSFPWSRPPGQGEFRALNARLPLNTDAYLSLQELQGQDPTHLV
T2 sequence 2: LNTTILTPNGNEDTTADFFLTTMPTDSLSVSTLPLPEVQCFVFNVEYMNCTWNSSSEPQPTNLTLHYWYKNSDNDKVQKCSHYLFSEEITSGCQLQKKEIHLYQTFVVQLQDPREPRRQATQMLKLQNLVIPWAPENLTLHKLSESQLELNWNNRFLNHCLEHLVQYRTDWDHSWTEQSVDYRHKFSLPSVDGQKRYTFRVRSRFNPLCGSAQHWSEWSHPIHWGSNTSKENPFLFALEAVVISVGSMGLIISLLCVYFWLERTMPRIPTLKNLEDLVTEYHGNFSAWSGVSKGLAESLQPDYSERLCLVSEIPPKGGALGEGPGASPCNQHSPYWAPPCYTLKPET


Experiments:
[1] = molecular target: T1, IL2RB, Cyno; assay: biolayer interferometry (Octet Qk384), antibody captured on anti-human Fc (AHC) sensors, antigen 7.8-500 nM in solution, 1:1 fit, KD = kd/ka
Procedure: All kinetics measurement experiments were performed on a ForteBio Octet Qk384 instrument using anti-human Fc capture (AHC, 18-5005) sensors. The bispecific heavy chain-only antibodies and antigens were diluted to final concentrations in Kinetics buffer (0.02% Tween20, 0.1% BSA, 0.05% sodium azide, 1X PBS). Kinetics measurements were against the following antigens: human IL-2RB (AcroBiosystems), human TL-2RG (AcroBiosystems), cynomolgus IL-2RB (Sino Biological), cynomolgus IL-2RG (expressed and purified in house using ExpiCHO expression system followed by Ni-NTA his-tag purification). The antibodies were loaded on the AHC sensors at 5 μg/mL for maximum loading. Following a short baseline in Kinetics buffer, the sensors were exposed to a series of analyte concentrations (7.8 nM to 500 nM) for association step and background subtraction was used to correct for sensor drifting. Dissociation was monitored in Kinetics buffer. The capture surfaces were regenerated for 60s. All experiments were performed with shaking at 1000 rpm. ForteBio's data analysis software was used to fit the data to a 1:1 binding model to extract an association rate and dissociation rate. The KD was calculated using the ratio kd/ka.

[2] = molecular target: T2, human IL-2Rβγ receptor on primary human …; assay: flow cytometry cell binding on human CD8+ T-cells (PBMC), gMFI as fold over secondary antibody only
Procedure: All washes and dilutions of cells, antibodies, and reagents were performed using flow buffer (1X PBS, 1% BSA, 0.1% NaN3, pH 7.4). Staining was performed in a round-bottom 96-well plate (Corning) seeded at 100,000 cells/well, and all incubations were performed at 4° C. or on ice. […] The cells were washed twice with 200 μL flow buffer. The cells were then incubated for 30 minutes with detection antibody (Goat F(ab′)2 Anti-Human IgG-PE, Southern Biotech) at 0.625 μg/mL in flow buffer. Following 2 more washes, the cells were resuspended in a final volume of 150 μL of flow buffer. The cells were analyzed on a BD FACSCelesta or a Guava easyCyte 8-HT flow cytometer. At least 3000 events were collected, and PE geometric mean fluorescence intensity was plotted as a fold over background (cells incubated with secondary detection antibody only). In some secondary screens involving human or cynomolgus PBMCs, an additional CD4 antibody (BioLegend) and/or CD8 antibody (BioLegend) was included to further characterize cell binding.

Binder | Kd [1] | EC50 (read off the curve) [2]
BsAb-2 (IL2RB_F09G**IL2RG_F16B) (bispecific antibody, human IgG4, V domains shown, Heavy chain-only bispecific on silenced, stabilised human IgG4 Fc, knobs-into-holes, no light chains; not shown: C-terminal His-tag on the knob chain) V domain 1: QVQLQESGPGLVKSSETLSLTCTVSGGSISSSDWWSWVRQPPGKGLEWIGEIDHSGSTNYNPSLMSRVTISVDKSKNQFSLKLSSVTAADTAVYFCARGSWELTDAFDIRGQGTLVTVSS V domain 2: QVQLVESGGGLVKPGGSLRLSCAASGFTFSDYYMSWIRQAPGKGLEWVSYISSSGSTIYYADSVKGRFTISRDNAKNSLYLQMNSLRAEDTAVYYCARGDAVSITGDYRGQGTLVTVSS | 16.7 nM | ~10 nM
BsAb-4 (IL2RB_F09G**IL2RG_F18A) (bispecific antibody, human IgG4, V domains shown, Heavy chain-only bispecific on silenced, stabilised human IgG4 Fc, knobs-into-holes, no light chains; not shown: C-terminal His-tag on the knob chain) V domain 1: QVQLQESGPGLVKSSETLSLTCTVSGGSISSSDWWSWVRQPPGKGLEWIGEIDHSGSTNYNPSLMSRVTISVDKSKNQFSLKLSSVTAADTAVYFCARGSWELTDAFDIRGQGTLVTVSS V domain 2: QVQLVESGGDLVKPGGSLRLSCAASGFTFSDYYMSWLRQAPGKELEWVSHISSSGTTTYYADSVEGRFTITRDNAKNSLYLQMNSLRAEDTAVYYCARGAAVAPGFDSRGQGTLVTVSS | 17.3 nM | 
BsAb-3 (IL2RB_F09G**IL2RG_F16C) (bispecific antibody, human IgG4, V domains shown, Heavy chain-only bispecific on silenced, stabilised human IgG4 Fc, knobs-into-holes, no light chains; not shown: C-terminal His-tag on the knob chain) V domain 1: QVQLQESGPGLVKSSETLSLTCTVSGGSISSSDWWSWVRQPPGKGLEWIGEIDHSGSTNYNPSLMSRVTISVDKSKNQFSLKLSSVTAADTAVYFCARGSWELTDAFDIRGQGTLVTVSS V domain 2: QVQLVESGGGLVKPGGSLRLSCAASGFTFNDYYMSWIRQAPGKGLEWVSHISSSGSTIYYADSVKGRFTVSRDNANNSLYLQMHSLRAEDTAVYYCARGDAVSITGDYRGQGTLVTVSS | 16 nM | ~5 nM
BsAb-1 (IL2RB_F09C**IL2RG_F16A) (bispecific antibody, human IgG4, V domains shown, Heavy chain-only bispecific on silenced, stabilised human IgG4 Fc, knobs-into-holes, no light chains; not shown: C-terminal His-tag on the knob chain) V domain 1: QVQLQESGPGLVKPSGTLSLTCAVSGGSISSSDWWSWVRQPPGKGLEWIGEIDHSGSTNYNPSLMSRVTISVDKSKNQFSLKLSSVTAADTAVYFCGRGSWELSDAFDIRGQGTLVTVSS V domain 2: QVQLVESGGGLVKPGGSLRLSCAASGFTFSDYYMSWIRQAPGKGLEWVSSISSSGDTIYYADSVQGRFTLSRDNAENSLFLQMNSLRAEDTAVYYCARGDAVSITGDYRGQGTLVTVSS | 10.7 nM | 

More lines, now with the values ahead:

Kd [1] | EC50 (read off the curve) [2] | Binder
55.2 nM | ~5 nM | BsAb-6 (IL2RB_F18E**IL2RG_F16A) (bispecific antibody, human IgG4, V domains shown, Heavy chain-only bispecific on silenced, stabilised human IgG4 Fc, knobs-into-holes, no light chains; not shown: C-terminal His-tag on the knob chain) V domain 1: QVQLVESGGGVVQPGRSLRLSCAASGFTFSSYGMHWVRQAPGKEREWVAVISYDGSNKYYTDSVKGRFTISRDNSKNTLYLEMNSLRAEDTAVYYCARDLDYDVLTGDPVGGFDIWGQGTLVTVSS V domain 2: QVQLVESGGGLVKPGGSLRLSCAASGFTFSDYYMSWIRQAPGKGLEWVSSISSSGDTIYYADSVQGRFTLSRDNAENSLFLQMNSLRAEDTAVYYCARGDAVSITGDYRGQGTLVTVSS
16.5 nM |  | BsAb-5 (IL2RB_F09K**IL2RG_F16B) (bispecific antibody, human IgG4, V domains shown, Heavy chain-only bispecific on silenced, stabilised human IgG4 Fc, knobs-into-holes, no light chains; not shown: C-terminal His-tag on the knob chain) V domain 1: QVQLQESSPGLVKPSETLSLTCTVSGGSISSSNWWSWVRQPPGKGLEWIGEISHSGSTNYNPSLKSRVTISVDKSKNQFSLRLSSVTAADTAVYFCGRGSWELTDAFDIRGQGTLVTVSS V domain 2: QVQLVESGGGLVKPGGSLRLSCAASGFTFSDYYMSWIRQAPGKGLEWVSYISSSGSTIYYADSVKGRFTISRDNAKNSLYLQMNSLRAEDTAVYYCARGDAVSITGDYRGQGTLVTVSS

— patent publication US20260102487A1 (Amgen, published 2026)
